“Also recorded” adds a separate entry of the source.
Assays:
[1] = tested on: SEMA7A OE E0771 mouse mammary carcinoma cells; assay: E0771 SEMA7A OE mouse mammary carcinoma model, in vivo antibody treatment; settings: SmAbH1 alone
Experimental: For initial in vivo studies with SmABHI. SEMA7A OE E0771 mouse mammary carcinoma cells were injected into mice. Twenty days after carcinoma cells were injected. SmAbH1 (e.g., 12 ug) was administered intraperitoneally to the mice every three days until day 36 post-carcinoma cell injection. Tissues were collected at day 36. Tumors, lungs, and LNs were harvested and processed for IHC and flow cytometry to determine the effect of SEMA7A mAb therapy on cells of the tumor microenvironment (TME). In an additional experiment, tumors were treated at day 28 post-injection with a novel SEMA7A directed antibody, monoclonal antibody clone H1. Fully regressed tumors were removed from treatment at day 50) and the animals were re-challenged with an additional tumor inoculation at day 90 to assess SEMA7A mAb effects. Finally, to examine changes in immune cells in the tumor microenvironment, tumors were treated at day 13 post-inoculation and harvested at day 18. During this time period, tumors were actively regressing (FIGS. 2A-2C).
E0771 model: Female C57/BL6 mice were injected orthotopically into the left and right #4 mammary fat pads with 200,000 E0771 SEMA7A OE mouse mammary carcinoma cells. Tumors were measured every day once tumors became palpable (3 days post injection). […]

[2] = tested on: pSTAT3 in MDA231 cells; assay: Western blot for phosphorylation of STAT3; format: cell-based, human; settings: MDA231, high SEMA7A
Text: (§1) In another exemplary method the human triple negative breast cancer cell lines with low (MDA468) or high (MDA231) levels of SEMATA were again treated with SmAbH1 (CUH1) or commercially available monoclonal antibody-based inhibitors of an integrin receptor for SEMA7A (α6β1) and then evaluated using Western blot for phosphorylation of STAT3 (pSTAT3).

[3] = tested on: pSTAT3 in MDA468 cells; assay: Western blot for phosphorylation of STAT3; format: cell-based, human; settings: MDA468, low SEMA7A
Text: as §1

[4] = tested on: 66cl4 Sema7A DDK cells; assay: IncuCyte percent confluence time course; format: cell-based, mouse
Experimental: For proliferation assays, cells were plated at 2000 cells per well of a 96-well dish. Four pictures of different regions in each well were taken every four hours for 48 h using an IncuCyte ZOOM (Essen BioScience, Ann Arbor, MI, USA). Percent confluence was determined using the IncuCyte ZOOM software (Essen BioScience). 66cl4 Sema7A DDK cells were plated in a 96-well plate in triplicate at 1,500 cells/well. They sat down over 24 hours and then were treated with 1000 nM IgG control, 10 nM SmAbH1, 100 nM SmAbH1, 200 nM SmAbH1, 500 nM SmAbH1, or 1000 nM SmAbH1. The plate was promptly transferred to the IncuCyte where photos were taken and analyzed every 4 hours for 7 days. For additional treatment studies in MCF7, TC11 and SSM2 cells ([…]) were plated in a 24-well plate in complete media and allowed to sit down over 24 hours. At 24 hours after plating, cells were treated with 500 nM IgG control, 500 nM SmAbH1, 8 nM Fulvestrant or the combination. The plate was incubated at 37 C for 48 hours, then fixed with 10% NBF and stained with crystal violet.

[5] = target: T1, SEMA7A (Homo sapiens, UniProt O75326); assay: Western blot binding on MCF7 control and SEMA7A OE cell lysates; settings: 200 μg/mL antibody
T1 construct: MCF7 cells endogenously express SEMA7A (75 kDa); endogenous in cells; host or cells: MCF7
T1 sequence (O75326 45-648): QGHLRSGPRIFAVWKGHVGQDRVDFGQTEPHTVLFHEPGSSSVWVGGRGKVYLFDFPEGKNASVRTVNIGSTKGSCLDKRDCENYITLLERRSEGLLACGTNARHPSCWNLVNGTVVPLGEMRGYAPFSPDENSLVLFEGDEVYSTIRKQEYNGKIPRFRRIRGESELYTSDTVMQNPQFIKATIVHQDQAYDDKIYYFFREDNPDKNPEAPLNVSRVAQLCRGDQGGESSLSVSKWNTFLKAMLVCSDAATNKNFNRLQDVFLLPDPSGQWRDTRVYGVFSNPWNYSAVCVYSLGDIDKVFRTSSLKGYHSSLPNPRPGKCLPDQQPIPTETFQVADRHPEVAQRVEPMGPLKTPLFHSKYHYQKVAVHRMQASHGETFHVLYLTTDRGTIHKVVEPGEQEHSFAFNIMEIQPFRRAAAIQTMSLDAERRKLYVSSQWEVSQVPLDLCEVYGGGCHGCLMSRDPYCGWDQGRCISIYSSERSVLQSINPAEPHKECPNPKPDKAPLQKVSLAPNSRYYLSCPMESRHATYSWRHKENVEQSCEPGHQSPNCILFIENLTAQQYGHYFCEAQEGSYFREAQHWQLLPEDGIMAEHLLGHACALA
Experimental: In another exemplary method, the ability of an anti-SEMA7A monoclonal antibody to bind to SEMATA was tested. In one exemplary method, CUH1 mAb was validated for binding to MCF7 SEMA7A over expressing cell lysate using Western Blot. Specifically. binding of the CUH1 mAb was detected on lysates from MCF7 control cells and SEMA7A overexpressing (OE) cells using 200 μg/mL of SmAbH1. MCF7 cells endogenously express SEMA7A (75 kDa) but OE cells were engineered to overexpress V5 tagged
MCF7 cells were lysed with RIPA containing EDTA (Thermo Scientific) and spun at 14K for 15 min. The supernatant was then quantitated using a Qubit Assay (Invitrogen) standard protocol and mixed 3:1 with Laemmli Sample Buffer (BioRad) with 2-mercaptoethanol and heated at 70 degrees for 10 min. 100 μg of lysate was loaded onto 4-20% Tris-Glycine gel (BioRad) and transferred to a PVDF membrane (Milipore). The membrane was blocked with 5% Bovine Serum Albumin (BSA) for 3 hours and then probed with 200 μg/ml of CUH1 in 5% BSA overnight at 4 degrees with gentle rocking. The membrane was washed three times 15 minutes with TBS-T and then probed with 10 ng/ml Goat Anti-Mouse IgG HRP (Abcam 97040) in 5% BSA for 1 hour at room temp. The membrane was washed and then incubated with 1:1 mix SuperSignal West Pico (Thermo Scientific) for 4 min at room temp.

B1: SmAbH1: mouse monoclonal antibody against SEMA7A generated using the 10-mer immunizing peptide … (SEQ ID NO: 2) (antibody, V domains shown)
VH: QVKLQESGTVLARPGASVKMSCKASVYSFTSYWMHWVKQRPGQGLEWIGAIYPGNSDTSYNQKFKGKAKLTAVTSASTAYMELSSLTNEDSAVYYCTRGGAPTMITAYYAMDYWGQGTSVTVSS
VL: DIQMTQTTSSLSASLGDRVTISCRASQDISNYLNWYQQKPDGTVKLLIYYTSRLHSGVPSRFSGSGSGTDYSLTISNLEQEDIATYFCQQGNTLPWTFGGGTKLEIKR
B1 was tested, and the “tumor growth and metastasis compared to anti-PD-L1 and the combination” value [1] was “superior at reducing both tumor growth and metastasis”, the “downstream STAT3 activation (pSTAT3)” value [2] was “blocking block downstream STAT3 activation similar to integrin blockade” and the “downstream STAT3 activation (pSTAT3)” value [3] was “blocking block downstream STAT3 activation similar to integrin blockade”. The “viability / percent confluence over time” value ([4]; 66cl4, 10-1000 nM SmAbH1, 7 days) was “decreased viability; also recorded: dose dependency”, the “decrease of cellular confluence compared to commercially available SEMA7A directed antibodies” value ([4]; 66cl4 DDK and DDK SEMA7A cells, vs SC-374432 and Ab23578) was “greater than commercially available” and the “binding to SEMA7A in cell lysates” value [5] was “successfully bound to both endogenous (75 kDa) and overexpressed (100 kDa) SEMA7A”.
